Here are results for three substances from US20240018184A1.

Assay [1] addresses mAb (sample of Example 11, 4.28 mg/ml). The assay can be described thus: load volume to 35% breakthrough, PCC columns, CIP with 2 M NaOH.
In assay [2] the target is Cy5-hIgG (Cy5-labelled human immunoglobulin G) (human). The assay can be described thus: confocal microscopy of beads with Cy5-hIgG, after 16 h in 1 M NaOH.
Assay [3] has as its target human polyclonal IgG (Gammanorm) (human). Briefly: pH gradient elution (citrate pH 6-3) from column.
The target of assay [4] is Cy5-hIgG (Cy5-labelled human immunoglobulin G) (human). The assay can be described thus: confocal microscopy of beads with Cy5-hIgG, after 8 h in 2 M NaOH.

For “MabSelect SuRe (ligand of the commercial reference matrix)”, the original capacity remaining in assay [1] was less than 80%.
“MabSelect SuRe LX (ligand of the commercial reference matrix)” came in with a binding capacity lost in assay [2] of 50%. Also, in assay [3], the Elution pH (peak 1) was found to be 4.01 pH and the Elution pH (peak 2) is 3.7 pH. Further, in assay [4], the Ig-binding capacity lost was 50%.
In assay [3], “Zvar(Q9A, N11E, Q40V, A42K, N43A, L44I)6 (designed binder)” displayed an Elution pH (peak 1) of 4.24 pH and an Elution pH (peak 2) of 3.81 pH.
